Assay results published in article PMC10761769, “Allosteric control of dynamin-related protein 1 through a disordered C-terminal Short Linear Motif” (Nature Communications, 2024).
Values joined by “and” are separate entries in the source; they are usually repeats but may differ in a detail not shown here. Equal entries are not always repeated.

Columns and labels:
R403A Drp1 = R403A Drp1 (UniProt O00429); test: not stated; R403A Drp1 in solution (Supplementary Fig. 4a); the same protein was used as a dimer for SEC-SAXS at ~34 uM in buffer A with 1 mM DTT
[1] = molecular target: the molecule itself; test: SEC-MALS; Drp1 in the nucleotide-free apo state, Superose 6 10/300 GL; injected at 5 uM, ~0.5 uM at peak detection; other injection concentrations in the supplement
[2] = molecular target: the molecule itself; test: negative-stain EM; 2D class averages of single particles, Drp1 at 2 uM, apo state
[3] = molecular target: the molecule itself; test: SEC-MALS; full-length GIPC-1, unliganded, 10 uM at injection, Superdex 200 10/300 GL
[4] = molecular target: human dynamin-related protein 1 (Drp1) isoform 3, wild type, N-terminal His6 tag (human) (UniProt O00429)

R403A Drp1 (from UniProt O00429-4 1-699) (enzyme)
stoichiometry N (R403A Drp1): 2

B1: human Drp1 isoform 3 ΔCT6 (last six residues, the whole CT-SLiM, removed) (enzyme, UniProt O00429-4 1-693, looked up)
chain: MEALIPVINKLQDVFNTVGADIIQLPQIVVVGTQSSGKSSVLESLVGRDLLPRGTGIVTRRPLILQLVHVSQEDKRKTTGEENGVEAEEWGKFLHTKNKLYTDFDEIRQEIENETERISGNNKGVSPEPIHLKIFSPNVVNLTLVDLPGMTKVPVGDQPKDIELQIRELILRFISNPNSIILAVTAANTDMATSEALKISREVDPDGRRTLAVITKLDLMDAGTDAMDVLMGRVIPVKLGIIGVVNRSQLDINNKKSVTDSIRDEYAFLQKKYPSLANRNGTKYLARTLNRLLMHHIRDCLPELKTRINVLAAQYQSLLNSYGEPVDDKSATLLQLITKFATEYCNTIEGTAKYIETSELCGGARICYIFHETFGRTLESVDPLGGLNTIDILTAIRNATGPRPALFVPEVSFELLVKRQIKRLEEPSLRCVELVHEEMQRIIQHCSNYSTQELLRFPKLHDAIVEVVTCLLRKRLPVTNEMVHNLVAIELAYINTKHPDFADACGLMNNNIEEQRRNRLARELPSAVSRDKVASGGGGVGDGVQEPTTGNWRGMLKTSKAEELLAEEKSKPIPIMPASPQKGHAVNLLDVPVPVARKLSAREQRDCEVIERLIKSYFLIVRKNIQDSVPKAVMHFLVNHVKDTLQSELVGQLYKSSLLDDLLTESEDMAQRRKEAADMLKALQGASQIIAEI
notes: Drp1, human, isoform 3, without the last six residues (R694-W699) of the 699; numbers count on: isoform 3 (699 residues); Limits worked out from 'the last six residues removed' and W699 as the last residue; also called ΔCT6 Drp1; ΔCT6 variant
stoichiometry N [1]: 4 | stoichiometry N [2]: 2

B2: mouse GIPC-1 (GAIP interacting protein, C-terminus 1), full length (natural protein, UniProt Q9Z0G0 1-333, looked up)
chain: MPLGLGRRKKAPPLVENEEAEPSRSGLGVGEPGPLGGSAAGESQMGLPPPPAALRPRLVFHTQLAHGSPTGRIEGFTNVKELYGKIAEAFRLPAAEVMFCTLNTHKVDMDKLLGGQIGLEDFIFAHVKGQRKEVEVFKSEEALGLTITDNGAGYAFIKRIKEGSVIDHIQLISVGDMIEAINGQSLLGCRHYEVARLLKELPRGRTFTLKLTEPRKAFDMISQRSAGGHPGSGPQLGTGRGTLRLRSRGPATVEDLPSAFEEKAIEKVDDLLESYMGIRDTELAATMVELGKDKRNPDELAEALDERLGDFAFPDEFVFDVWGAIGDAKVGRY
notes: GIPC-1, mouse, full length; also called full-length GIPC-1; source: subcloned in pGEX-6P1, expressed and purified using standard protocols; GST removed by HRV3C; not shown: GST, N-terminal, cleaved
stoichiometry N [3]: 2 | fission of free-standing lipid nanotubes by WT Drp1 with GIPC-1 at 1:1 (0.5 uM each), 1 mM GTP [4]: > 30%

B3: human dynamin-related protein 1 (Drp1) isoform 3, wild type, N-terminal His6 tag (enzyme, UniProt O00429-4 1-699, looked up)
chain: MEALIPVINKLQDVFNTVGADIIQLPQIVVVGTQSSGKSSVLESLVGRDLLPRGTGIVTRRPLILQLVHVSQEDKRKTTGEENGVEAEEWGKFLHTKNKLYTDFDEIRQEIENETERISGNNKGVSPEPIHLKIFSPNVVNLTLVDLPGMTKVPVGDQPKDIELQIRELILRFISNPNSIILAVTAANTDMATSEALKISREVDPDGRRTLAVITKLDLMDAGTDAMDVLMGRVIPVKLGIIGVVNRSQLDINNKKSVTDSIRDEYAFLQKKYPSLANRNGTKYLARTLNRLLMHHIRDCLPELKTRINVLAAQYQSLLNSYGEPVDDKSATLLQLITKFATEYCNTIEGTAKYIETSELCGGARICYIFHETFGRTLESVDPLGGLNTIDILTAIRNATGPRPALFVPEVSFELLVKRQIKRLEEPSLRCVELVHEEMQRIIQHCSNYSTQELLRFPKLHDAIVEVVTCLLRKRLPVTNEMVHNLVAIELAYINTKHPDFADACGLMNNNIEEQRRNRLARELPSAVSRDKVASGGGGVGDGVQEPTTGNWRGMLKTSKAEELLAEEKSKPIPIMPASPQKGHAVNLLDVPVPVARKLSAREQRDCEVIERLIKSYFLIVRKNIQDSVPKAVMHFLVNHVKDTLQSELVGQLYKSSLLDDLLTESEDMAQRRKEAADMLKALQGASQIIAEIRETHLW
notes: dynamin-related protein 1 (Drp1), human, isoform 3, 699 residues, ends in the CT-SLiM R694-W699 (RETHLW); numbers count on: isoform 3 (699 residues); also called WT Drp1; WT
stoichiometry N [1]: 2 and 4

B4: human Drp1 isoform 3 ΔCT4 (last four residues of the CT-SLiM removed) (enzyme, UniProt O00429-4 1-695, looked up)
chain: MEALIPVINKLQDVFNTVGADIIQLPQIVVVGTQSSGKSSVLESLVGRDLLPRGTGIVTRRPLILQLVHVSQEDKRKTTGEENGVEAEEWGKFLHTKNKLYTDFDEIRQEIENETERISGNNKGVSPEPIHLKIFSPNVVNLTLVDLPGMTKVPVGDQPKDIELQIRELILRFISNPNSIILAVTAANTDMATSEALKISREVDPDGRRTLAVITKLDLMDAGTDAMDVLMGRVIPVKLGIIGVVNRSQLDINNKKSVTDSIRDEYAFLQKKYPSLANRNGTKYLARTLNRLLMHHIRDCLPELKTRINVLAAQYQSLLNSYGEPVDDKSATLLQLITKFATEYCNTIEGTAKYIETSELCGGARICYIFHETFGRTLESVDPLGGLNTIDILTAIRNATGPRPALFVPEVSFELLVKRQIKRLEEPSLRCVELVHEEMQRIIQHCSNYSTQELLRFPKLHDAIVEVVTCLLRKRLPVTNEMVHNLVAIELAYINTKHPDFADACGLMNNNIEEQRRNRLARELPSAVSRDKVASGGGGVGDGVQEPTTGNWRGMLKTSKAEELLAEEKSKPIPIMPASPQKGHAVNLLDVPVPVARKLSAREQRDCEVIERLIKSYFLIVRKNIQDSVPKAVMHFLVNHVKDTLQSELVGQLYKSSLLDDLLTESEDMAQRRKEAADMLKALQGASQIIAEIRE
notes: Drp1, human, isoform 3, without the last four residues (T696-W699) of the 699; numbers count on: isoform 3 (699 residues); Limits worked out from 'the last four residues removed' and W699 as the last residue; also called ΔCT4 Drp1; ΔCT4 variant
stoichiometry N [1]: 4 | stoichiometry N [2]: 2
